Measurements published in publication PMC2891668 (Molecular cancer therapeutics, 2009).

Molecular target: the molecule itself
Experiment: crystal structure

B1: NM23-H2 R88A mutant (enzyme, human)
chain: ANLERTFIAIKPDGVQRGLVGEIIKRFEQKGFRLVAMKFLRASEEHLKQHYIDLKDRPFFPGLVKYMNSGPVVAMVWEGLNVVKTGAVMLGETNPADSKPGTIRGDFCIQVGRNIIHGSDSVKSAEKEISLWFKPEELVDYKSCAHDWVYE
stoichiometry N: 6
